According to article PMC11655355 (Nature, 2024):

T1: RCD1–SRO–TAF4 (RST) domain from RCD1, RCD1-RST_(499–572) (UniProt Q8RY59 499-572)
T1 sequence (looked up): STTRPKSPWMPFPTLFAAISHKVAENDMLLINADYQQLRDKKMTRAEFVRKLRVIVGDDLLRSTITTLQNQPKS

B1: L-DREB2A_(255–272), synthetic peptide (peptide, UniProt O82132 255-272, looked up)
peptide: SSDMFDVDELLRDLNGDD

What was measured:
[1] = target: RCD1–SRO–TAF4 (RST) domain from RCD1, RCD1-RST_(499–572) (UniProt Q8RY59); assay: ITC
[2] = target: T1, RCD1–SRO–TAF4 (RST) domain from RCD1, …; assay: ITC

Molecule	fold difference in Kd between L- and D-enantiomer [1]	binding result [2]
D-ANAC013_(254–274), synthetic D-peptide (from UniProt F4IED2 254-274)	500 fold	
D-ANAC046_(319–338), synthetic D-peptide (from UniProt Q9SQQ6 319-338)	15 fold	
D-DREB2A_(255–272), synthetic D-peptide (from UniProt O82132 255-272)	72 fold	
B1		binds
